In the DeepSol protein solubility set:

Assay: soluble on expression in E. coli; label from the status in PepcDB or PDB records

Sequence | soluble on expression in E. coli
LIELIQYTPTTDTVRPEPILIVPAWIMKYYILDLSPENSMVKFLVDQGYTVFMISWRNPSAEDRDLGLDDYRKMGVVDAIGAVQGIVPDQKIHGVGYCLGGTLLSISAATMGRDGGDPFASLSYLASQIDFTEPGELQLFINESQLTFLEDMMWDHGYLDTTQMSGAFQMIGSADLVWSRSLHSYLMGDEPAMFDLLAWNADGTRMPYRMHSEYLRSLYLNNELTEGAFVVEGRPISVTDIRVPVFSVGTVKDHVAPWPSVYKMHLYLDTDLTFVLTSGGHN | not soluble
KETAAAKFERQHMDSGGGGSGHMENGYTYEDYKNTAEWLLSHTKHRPQVAIICGSGLGGLTDKLTQAQIFDYGEIPNFPRSTVPGHAGRLVFGFLNGRACVMMQGRFHMYEGYPLWKVTFPVRVFHLLGVDTLVVTNAAGGLNPKFEVGDIMLIRDHINLPGFSGQNPLRGPNDERFGDRFPAMSDAYDRTMRQRALSTWKQMGEQRELQEGTYVMVAGPSFQTVAECRVLQKLGADAVGMSTVPEVIVARHCGLRVFGFSLITDKVIMDYESLEKANHEEVLAAGKQAAQKLEQFVSILMASIPLPDKAS | soluble
MGSDKIHHHHHHTQKPDITYMPQPPFNPPTYVCYKAPAPIKIDGKLSPGEWDAIPWTSDFVDIEGDKRPAPHFQTRAKMTYDDNGMYFAVLMEEPHVWATITEHDAVIFHDNDFEIFLNPTNDTHNYLEYEVNALGTEWDLFLTRPYRDNPQVLNNWEFTGMKSAVYVDGTLNNPKDTDKSWSVEVFIPWTSVFQMDRGKEKPEIGEQIRVNFSRVEWTTDVKDGKYVKVPIQGEDKIREYNWVWAPTGVINIHMPEYWGYVQISDKIAGEGETPFVKHPSEETKWILRNLYYRQNEFAATFGHYADNINDLKANELCPQEIANQLEIHTTPSMYEISLPAPDGTVWNIRQDGLVWPKKK | not soluble
MNEFDRVRDYLTDLQDRICAAVEAIDGKARFAEDLWQRAEGGGGRTRILRDGAVFEQAGIGFSDVSGARLPPSASAHRPELAGATWRACGVSLVFHPHNPHIPTTHANVRYFRAERDGEMVAAWFGGGFDLTPFYPVDEDVMHWHRTAQALCAPFGEERYAAHKRWCDEYFFLRHRNETRGVGGLFFDDLGQDFERDFAYQRAVGDGFLDAYLPIVERRKDTPYGEAERAFQLYRRGRYVEFNLVYDRGTLFGLQSGGRAESILMSLPPQVRWEYGFQPQPGSAEARLADYLIPRDWLGLEHHHHHH | soluble
MNRDLPVLRALRSLPDKVVGEALVSNDAISMRYDVDASTGKVVRPSHDLYGQSISGKVLIFKNTKGGVATGWALLNLKSRGTAPIALVCDTTNPVFVQGAALAGLPIMDGFRESPRSAVRTGDVVELDGISGELKVLRRGAGGQLEHHHHHH | not soluble
GSHMSKDATKEISAPTDAKERSKAIETAMSQIEKAFGKGSIMKLGAESKLDVQVVSTGSLSLDLALGVGGIPRGRITEIYGPESGGKTTLALAIVAQAQKAGGTCAFIDAEHALDPVYARALGVNTDELLVSQPDNGEQALEIMELLVRSGAIDVVVVDSVAALTPRAEIEGDMGDSLPGLQARLMSQALRKLTAILSKTGTAAIFINQVREKIGVMYGNPETTTGGRALKFYASVRLDVRKIGQPTKVGNDAVANTVKIKTVKNKVAAPFKEVELALVYGKGFDQLSDLVGLAADMDIIKKAGSFYSYGDERIGQGKEKTIAYIAERPEMEQEIRDRVMAAIRAGNAGEAPALAPAPAAPEAAEA | soluble
MLAYQGTQIKEKRDEDAGFDLCVPYDIMIPVSDTKIIPTDVKIQVPPNSFGWVTGKSSMAKQGLLINGGIIDEGYTGEIQVICTNIGKSNIKLIEGQKFAQLIILQHHSNSRQPWDENKISQRGDKGFGSTGVF | soluble
SSASDGFKANLVFKEIEKKLEEEGEQFVKKIGGIFAFKVKDGPGGKEATWVVDVKNGKGSVLPNSDKKADCTITMADSDFLALMTGKMNPQSAFFQGKLKITGNMGLAMKLQNLQLQPGNAKL | soluble
MGSDKIHHHHHHMRVEDILDQLVMQSRDQDGAKYYISLINDMRIDRSVDPVKSIILEILSLCSDGRIDPWDVDLLKFAEIMNSFFGNSFIDFQFAGKAIADAWRVLRIKSDMSPKEQDRQMNDIGCEEPEDTDNFIPQNQVVIQLVPSVLTPQSRPVVLVDLIDEIRRKMYSSRLQKKKVDVHIEFDSSKLNPDRSEEMIEKTYRAIIESGKQKVFMSEIWGNTRRERAVFFLYSMFLFRDGRISLSQEEPNGDILIETNVI | not soluble
ILQTTVDGNSTAISNLKSDISSNGLAITDLQDRVKSLESTASHGLSFSPPLSVADGVVSLDMDPYFCSQRVSLTSYSAEAQLMQFRWMARGTNGSSDTIDMTVNAHCHGRRTDYMMSSTGNLTVTSNVVLLTFDLSDITHIPSDLARLVPSAGFQAASFPVDVSFTRDSATHAYQAYGVYSSSRVFTITFPTGGDGTANIRSLTVRTGIDT | soluble
MSLRRALIIDDEEAVLKIITHFIEMKDMPIKIVGKATSGDEAVDKIIGLEPDIVFIDIQMPIYNGLEVIEKTSHLSKKINFVVITAFNYFEYAQKALRLNVKDILLKPLDMKEFTKSVEKIIGYQYTNNDLLNEILEYINLNYSNDLKLNDCARLFLTNPSNISRIFKSNLNTTFISYLNHIRIEKSIELLENTTKSINEIAEIVGYNSLNNFYKNFKIEKGMTPKVYKLNTEGHHHHHH | not soluble
MLETRMQTTPLKIGISACLLGAKVRFDGGHKISHFVTNELDRYAEFVSVCPEMGMGLPVPRPTLRLISENERIALVETKDSSRDHTAALESYSQQKVAELQHAELCGYIVCAKSPSCGMERVKVYKHNGTEKDGVGVYTRILMEKMPWLPIEEDGRLNDPVLRENYITRVFCLHDFYTSMGDAPSAKKIVEFHSRYKLTLMAHNPQAYRALGRLVANVKQYPLDSFIQEYRLGLMQALAHRASRKNNTNVLMHLQGYFKRSLNKLQKAELAQVIESYRVGELPLLAPITLLKHYLALFPDAYLAQQRYLNPYPQELKLRYGL | not soluble
GEKVDFDDIQKKRQNKDLIELQALIDSHFEARRKEEEELVALKERIEKRRAERAE | soluble
MDDLMKDRIDLLIDYIMKHCLWQFHSRSWDRKRQNEGILTKTTQLLCDEPVDLGTPADKCYWVDAVCLADAYKSRYPWLKTMDKDDIKALMGALHERLDHLTITGSLNLELTDQHYLEHHHHHH | soluble
GPLGSSWLFLEVIAGPAIGLQHAVNSTSSSKLPVKLGRVSPSDLALKDSEVSGKHAQITWNSTKFKWELVDMGSLNGTLVNSHSISHPDLGSRKWGNPVELASDDIITLGTTTKVYVRISSQNEFQIPFKIGVASDPMA | soluble
MVVFDLSWTLVQADSFELLCQAAAVDADAVAEVRRCHSLGSDDDLRACAALLRGRSSTGLAERLHALIEYTDGAASVCRVLKKLGYRTTVLSPGRSFLRELVKADLGIDFVAANRHEMDSNEHFTGAILELLVNGERKAELLTMLAMREQLSPQQIIAVGDGPVSAKMLDSAGPSIAFGAPAARDGTNIGGKIQSKSLTCIWFLMGIHERDLRSFS | soluble
MGSDKIHHHHHHMTTAPLSWEELETLTDYQIDTVNGLTNAKARLRLFGQPESDVRVTLYRDNHAWCPYCQKVWLWLEEKQIPYRIEKVTMFCYGEKESWYKRKVPSGMLPAIELDGRIIKESDDILIALEKVFAPLNQGMEDRMVLPLRQLERLLFRAWCVWLCSRAGSSQQEQRNREQFIEMVARIEEALGRTPSPYFLDSFGIVDVIFTPYLERMNASLYYYKGYSLREENPRLSAWFAAMESRPTYCGTQSDFHTHAHDLPPQMGGCWENGETQMLLNKARVDNGPWFGLPDVAYPEPENSRMEALKRTIEHRINIIRVNPLDDKLFDQALRCALTHMMTGEDYVPPSGADVALRYLRDRINVPRDMSIYAAKRLRESLEKTAALAGDGQPDPIPTKHRRDQDPSNFVIK | not soluble
MAGFISNFFGVGDSDSQYEEPTEASQAAAPTESATNTRSTPKVVPMQGGKSVNSKIALFEPKIYSDVKEIATQLLKNQAVIINFDHVDDEMARRIVDFLTGTVFAINGEIERIGDEIFLCIPENYEVSGSTTSQFDTSKLLEHHHHHH | not soluble
MGSDKIHHHHHHMAGEPRLGRTGPRVSRVGLGLWQFGSPMWGGKALSADVLARGLSIAVEEGINLLDTAEVYGMGSSERMLGEALKRLNAREDFVIVSKVAGFRSTAGDIVKGARGIAGRLSSAPDVILHHWPPPVYSRLCSVVRGLEQAVNEGLASYYGFSNYGEDLLGDALSCTRRLEPVADQILYNLAYRTPEQRLIPLLHQHGMTPIAWSPLAKGALAGFKGEPTRAQAGDPVFRTALEDTGLQEVLESVARRLGASKASVALAWVAYKGAVPIVGWRRPERVREAAAAARLKLSEEDVALLDEASKRYVTLWGSSYSPPGLRRIRLIPGALQRLAIRLWGGI | not soluble
MNLVHTPNANRLHIALFGKRNSGKSSLINALTGQDTALVSDTPGTTTDSVQKAMEIHGIGPCLFIDTPGFDDEGELGNRRIERTWKAVEKTDIALLLCAGGGSAEETGEPDFTEELHWLEQLKAKNIPTILLINKADIRKNTASLAIRIKETFGSQPIPVSAKEKTGVELIRQAILEKLPEDFDQQSITGSLVTEGDLVLLVMPQDIQAPKGRLILPQVQTMRELLDKKCLIMSCTTDKLQETLQALSRPPKLIITDSQVFKTVYEQKPEESRLTSFSVLFAGYKGDIRYYVKSASAIGSLTESSRVLIAEACTHAPLSEDIGRVKLPHLLRKRIGEKLSIDIVAGTDFPQDLTPYSLVIHCGACMFNRKYVLSRIERARLQNVPMTNYGVAIAFLNGILNQIEYLEHHHHHH | not soluble
MGSDKIHHHHHHMFLSIGTLPEDSRFHDAMVYFDMAHLSGTDRSQMLLLPEVVDDYVGPDNPVRFIEAFIDGLDLQASGFIRVEPKLTSRPGYDPADLLKLYLYGYLNRVRSSRRLEAETHRNIEVIWLLRRLTPDHKTIANFRRVNHAAFRQVFREFVILCRQLDLFGRELLAVDGTRIKAVNNKERNFTRAALTKFIREADERLTEYMKRLDNGDAQEENTGGGGPRAKNLAEKITAIKGKRDRHKALLDELDRTGEDQISLTDMDSRAMARMTKVGVGYNIQLAVDVKHKLIAEQEVSNQVVDMGLLTQATQAAMDNLGVEQIEVVADRGYFKVEDIEACEKAGITAYVPKPLRGAAVREGFFSKDEFRYNAEKDVYVCPAGEHLSPRYEKKTRDLKLVEYCNREACRSCDLKAHCTHGYRRVGRVENEAVLDRMAARLAARPEVLDQRRETVEHPFGTIKQWMYQGSFLMRRLENVQGEFSLTALAYNIRRAITLVGVAGLIGAVRA | not soluble
MKPDETPMFDPSLLKEVDWSQNTATFSPAISPTHPGEGLVLRPLCTADLNRGFFKVLGQLTETGVVSPEQFMKSFEHMKKSGDYYVTVVEDVTLGQIVATATLIIEHKFIHSCAKRGRVEDVVVSDECRGKQLGKLLLSTLTLLSKKLNCYKITLECLPQNVGFYKKFGYTVSEENYMCRRFLK | soluble
MAEATVLIPAFNEEATVGRVVRVAREAGFPVVVADDGSKDETARRALEAGAEVVRLKENRGKGGAIAEGLKAVRTPFVLLLDADLLGLRPEHLFALLKPLKEGEARMAVGVFRGGRASTDLAMRLTPFLSGQRALRLEDLRSVPGLERARYDLELLLTRHAKRAGWPVVYVPMEGVSQVMKEEKRGVLAGLGHRLRMYWEILRYRLRAR | soluble
MSLKLLVLIDGSKWSQKAALHAFSIAKRKNAKVILFSVLDRREAKALAFHLSMRSDSLGKIKEFEETIWRETKKSVKEVITTLLELGRREGINCSFKIVEGSAKEEIIKEANSGKYSMVIMGAYGRSGKTRIGSLLEEVVGQIRIPVMIVREGHHHHHH | soluble
MNRREANALDRYLTEPTEKPHKETYEDDPVDTTDYFGNEIADEDGVFEITFAMKCLYTGQPVLTCKKIATQDTIVDLIEELGEENVYLIEYVSSGKRYKEGLLND | not soluble
